Data on one molecule can be found in patent publication US11229713B2, “Methods and compositions for 18F-radiolabeling of biologics” (BRISTOL-MYERS SQUIBB COMPANY, priority 2014, dated 2022).

The target in this assay is PD-L1 (Homo sapiens, UniProt Q9NZQ7). Nature of the assay: In vitro autoradiography blocking study in human lung tumor and xenograft tissue sections. Also on record: PD-L1-positive L2987 human lung carcinoma cells or PD-L1-negative HT-29 human colorectal adenocarcinoma cells; endogenous in cells; host or cells: L2987 human lung carcinoma cells (HT-29 as PD-L1-negative control). The note with it: A02 0.025-25 nM, non-PD-L1 binding adnectin 25 nM, 1 hour room temperature. How it is done:
Human lung tumor tissues were embedded in OCT and chilled in 2-methylbutane for 2-5 minutes until frozen. The samples were stored in −80° C. degree freezer until use. Human xenograft tissues were also included in the assay. Mice bearing bilateral xenografts were produced by introducing 4×10^6 PD-L1(+) L2987 cells and 1.5×10^6 PD-L1(−) HT-29 t cells subcutaneously into opposite flanks of nu/nu mice. Once resulting xenograft tumors reached appropriate size (approx. 200-300 mm^3) mice were anesthetized with 2% isoflurane and sacrificed via cervical dislocation. Fresh tumor tissues were excised, immersed into OCT and chilled in 2-methylbutane for 2-5 minutes until frozen. The tissues were then wrapped in foil/ZIPLOC® bag and stored at −80° C. until use. For all tissues (human lung tumor and xenografts) sections of 5 μm thickness (collected as 2 sections/slide) were cut using a cryostat, thaw-mounted on glass microscope slides, and allowed to air dry for approximately 30 minutes.
Blocking studies with cold (unlabeled) A02 adnectin at 0.025 nM, 0.25 nM, 2.5 nM and 25 nM respectively and 25 nM non-PD-L1 binding adnectin were conducted using the following conditions. […] Autoradiography signal from tissue-associated radioactivity was quantified from these ROIs.

Chain of PD-L1 (Q9NZQ7 19-290): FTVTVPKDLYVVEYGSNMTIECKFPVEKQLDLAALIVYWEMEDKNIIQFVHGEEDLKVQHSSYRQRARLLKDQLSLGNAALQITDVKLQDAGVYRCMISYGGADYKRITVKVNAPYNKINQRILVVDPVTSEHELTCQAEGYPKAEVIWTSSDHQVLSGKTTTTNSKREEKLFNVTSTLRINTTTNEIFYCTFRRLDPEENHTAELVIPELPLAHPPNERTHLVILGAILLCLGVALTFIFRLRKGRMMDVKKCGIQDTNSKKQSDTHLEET

B1: A02 adnectin: anti-PD-L1 Adnectin, SEQ ID NO: 2, cold (unlabeled) (protein)
chain: EVVAATPTSLLISWSYDGPIDRYYRITYGETGGNSPVQEFTVPPDQKTATISGLKPGVDYTITVYAVRLEEAHYNREFPISINYRTPC
modifications: Synthetic 18F-radiolabeled PD-L1 Adnectin, A02
As for B1, the “displacement / blockade of 0.25 nM ^18F-A02 adnectin radioligand compared to total binding” value was “dose dependent displacement”.
